{"source": "paper PMC9760430", "about": "“A stapled chromogranin A-derived peptide homes in on tumors that express αvβ6 or αvβ8 integrins” (International Journal of Biological Sciences, 2023)", "key": {"[1]": {"system": "orthotopically implanted BxPC-3 tumors", "test": "NIR-fluorescence imaging, orthotopic BxPC-3 pancreatic adenocarcinoma in nude mice", "conditions": "ex vivo NIR fluorescence, 24 h after 1.2 nmol i.v.", "procedure": "Mice were injected with peptide-IRDye conjugate (~1 nmol) into the tail vein and imaged at various time points (0-72 h) using the IVIS Spectrum CT Imaging System (PerkinElmer) (see Supplemental Materials). For blocking experiments, mice were injected intravenously with unlabeled peptide 5a (128 nmol/mouse) 10 min before 5a-IRDye.\nFigure 3 5a-IRDye homes in on orthotopically implanted BxPC-3 tumors. Nu/nu mice were orthotopically implanted with a Matrigel solution containing BxPC-3 cells or a Matrigel solution without cells (n=3-4 mice). After 18 days, mice were injected i.v. with 5a-IRDye (1.2 nmol), and NIR images were acquired after 24 h. A control mouse, which was not surgically manipulated, was injected with the vehicle and used as a reference for quantification of autofluorescence in the NIR region. (A) Representative fluorescence images of the exposed pancreas of control and tumor-bearing mice injected with or without 5a-IRDye as indicated. (B) Ex vivo fluorescence imaging and photographs of the removed pancreas. […]\nImages were acquired with three-four mice simultaneously. […] For the quantification of the fluorescence uptake by the exposed pancreas the left kidney was surgically removed before imaging. Regions of interest (ROI) were drawn on the images, and the average (Avg) radiant efficiency was calculated using the Living Image 4.3.1 software (PerkinElmer). […]"}, "[2]": {"test": "plasma pharmacokinetics in mice", "type": "in vivo", "conditions": "BALB/c mice, 1 nmol i.v.; plasma fluorescence 5-1440 min; two-phase exponential decay fit; 4 mice per point", "procedure": "Figure S13. Plasma pharmacokinetics of 5a-IRDye in mice.\nEight BALB/c mice were divided in 2 groups (4 mice/group) and injected i.v. with 5a-IRDye (1 nmol). Their blood was then collected into heparinized tubes at 5, 30, 120, 240, and 1440 min (group 1) or after 15, 60, 180, 360, and 1440 min (group 2). Plasma samples (20 µl) were diluted with PBS (50 µl, final volume) and transferred to a black 96-well microtiter plate. The amount of fluorescence in each sample was then quantified using an Infinite 200Pro reader plate (TECAN, excitation wavelength: 766 nm; emission wavelength: 810 nm; excitation bandwidth: 9 nm; emission bandwidth: 20 nm; gain: 180 optimal (100%) and number of flashes:\n25). (Dots, mean ± SE, 4 mice). Plasma half-life of 5a-IRdye was calculated using a two-phase exponential decay equation (GraphPad Prism software, San Diego California).\nChromogranin A binds to avb6-integrin and promotes wound healing in mice. Cell Mol […]\n(1 picture or pasted object on this page, not shown here)"}, "[3]": {"system": "BxPC-3 cells (αvβ6+/αvβ8-)", "test": "binding of peptide-IRDye conjugates to cultured BxPC-3 cells", "type": "cell-based, human", "conditions": "0.32-200 nM, 1 h, 37 °C; bound NIR fluorescence"}}, "data": [{"smiles": "CC[C@H](C)[C@H](NC(=O)[C@H](CCCNC(=N)N)NC(=O)[C@H](CC(C)C)NC(=O)[C@H](CC(=O)O)NC(=O)CNC(=O)[C@H](CCCNC(=N)N)NC(=O)[C@H](CC(C)C)NC(=O)[C@@H](NC(=O)[C@H](CCC(=O)O)NC(=O)[C@H](Cc1ccccc1)NC(=O)[C@@H](N)CSC1CC(=O)N(CCNC(=O)CCCCCN2C(=CC=C3CCCC(C=CC4=[N+](CCCCS(=O)(=O)[O-])c5ccc(S(=O)(=O)O)cc5C4(C)C)=C3Oc3ccc(S(=O)(=O)O)cc3)C(C)(C)c3cc(S(=O)(=O)O)ccc32)C1=O)[C@@H](C)O)C(=O)N[C@@H](CC(C)C)C(=O)N[C@@H](CO)C(=O)N[C@H](C(=O)N[C@@H](CC(C)C)C(=O)N[C@@H](CCCNC(=N)N)C(=O)N[C@H]1Cc2cn(nn2)CCCC[C@@H](C(=O)N[C@@H](CCCCN)C(=O)N[C@@H](CCC(=O)O)C(=O)N[C@@H](CC(C)C)C(=O)N[C@@H](CCC(N)=O)C(=O)N[C@@H](CC(=O)O)C(N)=O)NC(=O)[C@H](CC(C)C)NC(=O)[C@H](CC(N)=O)NC(=O)[C@H](CCC(N)=O)NC1=O)[C@@H](C)CC", "note": "(stereo partly drawn) [5a-IRDye]", "values": [{"measurement": "accumulation in other explanted organs", "setting": "[1]", "value": "accumulated also in kidney, lung, and liver, and little or not at all in heart, brain, muscle, bone, spleen, intestine, and stomach"}, {"measurement": "plasma half-life", "setting": "[2]", "value": "~ 8 min"}]}, {"smiles": "CC1(C)C(/C=C/C2=C(Oc3ccc(S(=O)(=O)O)cc3)C(=C\\C=C3/N(CCCCCC(=O)NCCN4C(=O)CC(SC[C@H](N)C(=O)O)C4=O)c4ccc(S(=O)(=O)O)cc4C3(C)C)/CCC2)=[N+](CCCCS(=O)(=O)O)c2ccc(S(=O)(=O)[O-])cc21", "note": "(stereo partly drawn) [Cys-IRDye]", "values": [{"measurement": "binding of conjugate to BxPC-3 cells", "setting": "[3]", "value": "little or no binding"}]}]}
